Experimental data from the supplement of paper PMC9170038.

System: MS2 coat protein
Experiment: apparent KD of MS2 coat protein; higher = weaker reporter binding
Conditions: Eterna round: R107
Protocol: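 RNA-MaP round R107: designed RNA switches with theophylline, tryptophan, arginine or FMN aptamers are transcribed on-chip within common flanks. They are titrated with SNAP-549-labelled MS2 coat protein in RNA-MaP buffer (100 mM Tris pH 7.5, 80 mM KCl, 4 mM MgCl2), without ligand or with the indicated ligand. Median apparent KD per design.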

[1] = input ligand: theophylline 20 uM
[2] = input ligand: theophylline 2 mM
[3] = input ligand: tryptophan 2.4 mM

Row | Sequence | apparent KD of MS2 coat protein (input ligand: arginine 13.2 mM) | apparent KD of MS2 coat protein (input ligand: none) | apparent KD of MS2 coat protein [1] | apparent KD of MS2 coat protein [2] | apparent KD of MS2 coat protein [3]
1 | AAAACAAUCUGAAGGAGCGUCACAUGAGGAUCACCCAUGUACAUGAGGAUCACCCAUGUGUGACAGGUAGGUCGCAGAAAAUACC [Exclusion Arginine B GF 3] | 111 nM | 216 nM | 183 nM | 219 nM | 200 nM
2 | AAAACACAUGAGGAUCACCCAUGUCAUGAUACCAGUCCACAUGAGGACCCUUGGCAGCAUAAAAUGGGUAACAUGAGGAUAACCC [AstrosEXyTheA#4] | 26.5 nM | – | 48.1 nM | – | 23.4 nM
3 | AAACAUGAGGAUCACCCAUGUUCAAUAGAUACCAGUGAUACGGUGCACCCUUGGCAGCUGUUGCUGAGUGAUGGUUCCCUCGGUA [#24 SameState-TheophyllineA] | 19.9 nM | – | 32.9 nM | – | 27.1 nM
4 | AAACGUUGCUGCGAUACCAGACAUGAGGAUCACCCAUGUACCAAGGUAAAGAAAUAACGUGUCCCUUGGCAGCGCAGCAACGAAA [MAT - Exclusion Theophlline B - Mod of Eli - D12] | 8.7 nM | 10.2 nM | 16.1 nM | 143 nM | 10.6 nM
5 | AAACUUCGCAUAGGAAAACUAUGUGAAGAUCGAGGACCGGUACGGCCGCCACUCGUCCUCAACAUGAGGAUCACCCAUGUAAUAA [Mat - Exclusion - Trytophan A - D3] | 22.8 nM | – | 23.7 nM | 23 nM | –
6 | AAAGCCUUGCCCGGUGUUCCGAAAGUGGAAGGAGCGCACAUUGGUGCAGGUAGGUCGCCACAUGAGGAUCACCCAUGUCUAGGCU [Isbeat] | 42.5 nM | 34.1 nM | 107 nM | 135 nM | 11.3 nM
7 | AAAGGAAGGUAAAAUAAAACUACAUGUGAAGGAGCGCCCGAAAGGGCAGGUAGGUCGCACAUGAGGAUCACCCAUGUCCUUCCAA [ArgEX 6 #SwitchBubble] | 206 nM | 319 nM | 315 nM | 439 nM | 293 nM
8 | AAAUAAAUAACUGAUACCAGUGGACUGACAUGAGGAUCACCCAUGUUGGGUUUUGUUGUCCACCCUUGGCAGCGGGCAUAUAAAA [#25 Exclusion-TheophyllineB] | 23.4 nM | – | 38.4 nM | – | 26.8 nM
9 | AAAUAAAUACAUGAGGAUCACCCAUGUGAAGGAGCGGCCGUUAGGCCAGGUAGGUCGCACAUGAAAGGGAAGCGAAAGAAAUAAU [MAT - Exclusion Arginine A - Mod of Eli - D7] | 12.2 nM | 18.1 nM | 25.9 nM | 19 nM | 19.2 nM
10 | AACAGUAUUAUAGAUACCAGCAGGUCAUAAGACAUGAGGAUCACCCAUGUGAAUGAGGUAUGCCCUUGGCAGCUAUGAGGUCCUC [theeternabot_sameState_MS2_Theo_B_18] | 113 nM | – | 185 nM | – | 126 nM
11 | AACAUGAGGAUCACCCAUGUAUGUUCCGAAGGAGCGCCACAUGAGGCAGGUAGGUCGCGGGUACAUGAGGAUCACCCAUGUGUCA [Exclusion Arginine A 3] | 56.5 nM | 113 nM | 170 nM | 128 nM | 174 nM
12 | AACAUGAGGAUCACCCAUGUCCCAUGUGAACGAGGACCGGUACGGCCGCCACUCGAAUGAGGCGGCACAUGAGGAUCACCCACAU [whbob_SS_trypto A_2s11] | 95.7 nM | – | 233 nM | 237 nM | –
13 | AACAUGAGGAUCACCCAUGUCCUCAUGAUUCGAGGACCGGUACGGCCGCCACUCGGUCCUCGCGAGGAGGAGUCAAAGACUCCAA [Omei Trp A SS A v2] | 360 nM | – | 361 nM | 968 nM | –
14 | AACAUGAGGAUCACCCAUGUCCUCGUGUUCCGAGGACCGGUACGGCCGCCACUCGGUCCUCGCGAGGAUGGUCAAAGACUAUCCA [Omei Trp A SS B v3] | 724 nM | – | 378 nM | 953 nM | –
15 | AACAUGAGGAUCACCCAUGUCUGAACUGAAGGAGCGCUAAAUAAGGCAGGUAGGUCGCGGAAUUUUGUGUACAUAUGUAUAUGGG [9.H] | 21.7 nM | 25.9 nM | 32.2 nM | 35.8 nM | 23.8 nM
16 | AACAUGAGGAUCACCCAUGUGUCCUCGAAACGAGGACCGGUACGGCCGCCACUCGACGUAUGUUGACGAAAAGUCAGCAUACGAA [Mat - Exclusion - Trytophan A - D12] | 112 nM | – | 310 nM | 330 nM | –
17 | AACAUGAGGAUCACCCAUGUGUCCUCGAAACGAGGACCGGUACGGCCGCCACUCGGCGUAUGUUGACGAAAAGUCAGCAUACGCA [Mat - Exclusion - Trytophan A - D11] | 81.8 nM | – | 209 nM | 255 nM | –
